T1: CgHSF1 (Colletotrichum gloeosporioides)
T1 chain: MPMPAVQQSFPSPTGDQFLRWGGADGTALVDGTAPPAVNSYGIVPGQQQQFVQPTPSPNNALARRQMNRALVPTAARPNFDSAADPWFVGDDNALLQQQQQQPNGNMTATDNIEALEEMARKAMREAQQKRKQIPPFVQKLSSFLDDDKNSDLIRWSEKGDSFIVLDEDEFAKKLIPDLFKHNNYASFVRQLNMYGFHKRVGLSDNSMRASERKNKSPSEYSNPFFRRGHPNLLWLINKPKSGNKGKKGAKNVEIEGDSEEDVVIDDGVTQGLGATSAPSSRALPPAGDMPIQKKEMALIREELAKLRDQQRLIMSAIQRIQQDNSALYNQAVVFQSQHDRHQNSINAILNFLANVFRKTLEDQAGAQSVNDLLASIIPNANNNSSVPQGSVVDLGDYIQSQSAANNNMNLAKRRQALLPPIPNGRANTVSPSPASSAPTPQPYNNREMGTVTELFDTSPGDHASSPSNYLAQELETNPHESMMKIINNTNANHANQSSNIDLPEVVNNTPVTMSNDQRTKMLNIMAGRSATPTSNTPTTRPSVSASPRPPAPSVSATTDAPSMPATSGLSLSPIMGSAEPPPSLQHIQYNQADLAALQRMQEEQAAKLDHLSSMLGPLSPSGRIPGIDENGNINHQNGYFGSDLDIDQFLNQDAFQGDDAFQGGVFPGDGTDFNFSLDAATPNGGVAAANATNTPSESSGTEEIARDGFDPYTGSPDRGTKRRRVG

B1: YG-probe (dsDNA)
DNA 1: TGTGGTGGTTTGAGAACATTCACTCAAAGCTCAC
DNA 2: GTGAGCTTTGAGTGAATGTTCTCAAACCACCACA
B2: T4HRa-probe (dsDNA)
DNA 1: CGAGTAAGGCACGCGAAGTTCAGGAGAGAGACCT
DNA 2: AGGTCTCTCTCCTGAACTTCGCGTGCCTTACTCG
B3: CMR1-probe (dsDNA)
DNA 1: CGTATCACTTGTTCGAATTTCTCACACATTCGGT
DNA 2: ACCGAATGTGTGAGAAATTCGAACAAGTGATACG

Biological target: T1, CgHSF1
Assay: EMSA
Conditions: protein: recombinant; tags: His (Ni-NTA purified, pCOLD vector); blunt

Binder | binding result
B1 | binds
B2 | binds
B3 | binds
